Assay results as given in IntAct's records for PubMed 22632968.

B1: SUN domain-containing protein 2 (Homo sapiens), Q9UH99 (parent)
chain: MSRRSQRLTRYSQGDDDGSSSSGGSSVAGSQSTLFKDSPLRTLKRKSSNMKRLSPAPQLGPSSDAHTSYYSESLVHESWFPPRSSLEELHGDANWGEDLRVRRRRGTGGSESSRASGLVGRKATEDFLGSSSGYSSEDDYVGYSDVDQQSSSSRLRSAVSRAGSLLWMVATSPGRLFRLLYWWAGTTWYRLTTAASLLDVFVLTRRFSSLKTFLWFLLPLLLLTCLTYGAWYFYPYGLQTFHPALVSWWAAKDSRRPDEGWEARDSSPHFQAEQRVMSRVHSLERRLEALAAEFSSNWQKEAMRLERLELRQGAPGQGGGGGLSHEDTLALLEGLVSRREAALKEDFRRETAARIQEELSALRAEHQQDSEDLFKKIVRASQESEARIQQLKSEWQSMTQESFQESSVKELRRLEDQLAGLQQELAALALKQSSVAEEVGLLPQQIQAVRDDVESQFPAWISQFLARGGGGRVGLLQREEMQAQLRELESKILTHVAEMQGKSAREAAASLSLTLQKEGVIGVTEEQVHHIVKQALQRYSEDRIGLADYALESGGASVISTRCSETYETKTALLSLFGIPLWYHSQSPRVILQPDVHPGNCWAFQGPQGFAVVRLSARIRPTAVTLEHVPKALSPNSTISSAPKDFAIFGFDEDLQQEGTLLGKFTYDQDGEPIQTFHFQAPTMATYQVVELRILTNWGHPEYTCIYRFRVHGEPAH

Variants of: B1
Conditions: with syne2_human SYNE2, Q8WXH0

Row | Variant | effect of a mutation on the interaction
1 | H628A | disrupting interaction strength
2 | S641E | disrupting interaction strength

Variants of: B1
Conditions: with syne2_human SYNE2, Q8WXH0
Remark: another data set of the same source

Row | Variant | effect of a mutation on the interaction
3 | L536D | decreasing interaction strength
4 | D542N | decreasing interaction strength
